Legend:
AncSZ = test: phosphorylation enrichment, bacterial display (enrichment ratio); higher = better substrate or ligand; peptides without Tyr show the background
EPHB1 = EPHB1 (UniProt P54762); test: as above
EPHB2 = EPHB2 (UniProt P29323); test: as above
FGFR1 = FGFR1 (UniProt P11362); test: as above
FGFR3 = FGFR3 (UniProt P22607); test: as above
Fer (mouse) = test: as above
Fes = Fes (UniProt P07332); test: as above
Fyn = Fyn (UniProt P06241); test: as above
Hck = Hck (UniProt P08631); test: as above
Jak2 = Jak2 (UniProt O60674); test: as above
MERTK = MERTK (UniProt Q12866); test: as above
c-Abl (mouse) = test: as above
c-Src = test: as above
Grb2 SH2 = Grb2 SH2 (UniProt P62993); test: SH2 binding enrichment of the phosphorylated peptide, bacterial display (enrichment ratio); higher = better substrate or ligand; peptides without Tyr show the background
SHP2-C SH2 = test: as above
c-Src SH2 = test: as above
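For SH2 binding enrichment of the phosphorylated peptide, bacterial display in this document: peptide library displayed on the E. coli surface as eCPX fusions, selected cells deep-sequenced, score is each peptide's frequency after selection divided by its frequency in the input.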
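For phosphorylation enrichment, bacterial display in this document: 11-residue human phosphosite peptides and single-mutation variants displayed on the E. coli surface, counted by deep sequencing, each peptide's frequency after selection divided by its frequency in the unselected input library; frequency after pTyr selection over input frequency; kinase dosed for 20-30% of maximal phosphorylation in three min.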

Jak2, sequence (O60674 whole entry, looked up): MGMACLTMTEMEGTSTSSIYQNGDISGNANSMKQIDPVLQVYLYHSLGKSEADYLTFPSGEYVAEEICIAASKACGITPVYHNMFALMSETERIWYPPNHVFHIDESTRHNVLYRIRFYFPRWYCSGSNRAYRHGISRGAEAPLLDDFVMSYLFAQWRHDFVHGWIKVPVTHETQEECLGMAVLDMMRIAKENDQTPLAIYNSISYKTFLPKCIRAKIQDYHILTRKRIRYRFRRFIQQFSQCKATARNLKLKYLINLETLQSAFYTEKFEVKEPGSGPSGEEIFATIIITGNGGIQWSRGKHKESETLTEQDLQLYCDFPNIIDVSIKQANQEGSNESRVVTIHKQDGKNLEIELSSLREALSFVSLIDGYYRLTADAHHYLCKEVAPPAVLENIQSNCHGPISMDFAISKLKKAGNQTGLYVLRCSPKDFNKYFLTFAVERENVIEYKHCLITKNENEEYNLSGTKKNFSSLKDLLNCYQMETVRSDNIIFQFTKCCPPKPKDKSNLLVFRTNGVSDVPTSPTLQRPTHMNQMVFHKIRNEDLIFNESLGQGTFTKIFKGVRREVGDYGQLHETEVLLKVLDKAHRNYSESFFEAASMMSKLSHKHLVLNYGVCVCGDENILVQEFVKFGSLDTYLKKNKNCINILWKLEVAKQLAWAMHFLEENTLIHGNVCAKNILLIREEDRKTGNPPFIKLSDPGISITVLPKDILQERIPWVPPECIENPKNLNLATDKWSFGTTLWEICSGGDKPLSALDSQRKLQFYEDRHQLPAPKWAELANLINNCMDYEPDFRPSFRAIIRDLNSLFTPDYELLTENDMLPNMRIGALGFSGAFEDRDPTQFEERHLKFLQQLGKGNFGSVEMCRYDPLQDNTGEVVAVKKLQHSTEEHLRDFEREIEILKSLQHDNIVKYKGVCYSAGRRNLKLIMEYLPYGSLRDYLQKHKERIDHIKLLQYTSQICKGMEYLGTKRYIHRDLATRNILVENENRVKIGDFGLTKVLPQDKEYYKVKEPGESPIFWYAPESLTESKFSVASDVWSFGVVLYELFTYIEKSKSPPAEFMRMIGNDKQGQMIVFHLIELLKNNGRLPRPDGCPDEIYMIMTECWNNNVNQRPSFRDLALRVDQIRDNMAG
Fyn, sequence (P06241 whole entry, looked up): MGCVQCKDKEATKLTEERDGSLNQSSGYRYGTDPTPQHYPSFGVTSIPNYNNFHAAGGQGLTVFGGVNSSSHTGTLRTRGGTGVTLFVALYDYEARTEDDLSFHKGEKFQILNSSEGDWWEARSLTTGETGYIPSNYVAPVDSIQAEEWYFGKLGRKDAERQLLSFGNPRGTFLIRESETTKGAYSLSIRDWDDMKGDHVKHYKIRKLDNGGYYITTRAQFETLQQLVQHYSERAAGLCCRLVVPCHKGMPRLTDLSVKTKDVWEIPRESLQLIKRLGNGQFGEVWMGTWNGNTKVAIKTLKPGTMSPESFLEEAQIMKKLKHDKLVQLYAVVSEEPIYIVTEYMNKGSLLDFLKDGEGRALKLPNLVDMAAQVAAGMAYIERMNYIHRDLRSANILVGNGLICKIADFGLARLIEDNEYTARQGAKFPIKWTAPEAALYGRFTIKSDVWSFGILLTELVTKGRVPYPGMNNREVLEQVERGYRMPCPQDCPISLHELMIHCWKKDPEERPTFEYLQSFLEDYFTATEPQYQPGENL
Grb2 SH2, sequence (P62993 whole entry, looked up): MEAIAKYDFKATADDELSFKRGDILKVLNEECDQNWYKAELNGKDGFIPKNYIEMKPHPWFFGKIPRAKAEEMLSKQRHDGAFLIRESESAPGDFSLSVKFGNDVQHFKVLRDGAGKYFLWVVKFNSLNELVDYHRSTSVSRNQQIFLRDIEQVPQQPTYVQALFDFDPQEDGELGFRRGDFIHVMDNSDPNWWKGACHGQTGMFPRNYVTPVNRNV
Hck, sequence (P08631 whole entry, looked up): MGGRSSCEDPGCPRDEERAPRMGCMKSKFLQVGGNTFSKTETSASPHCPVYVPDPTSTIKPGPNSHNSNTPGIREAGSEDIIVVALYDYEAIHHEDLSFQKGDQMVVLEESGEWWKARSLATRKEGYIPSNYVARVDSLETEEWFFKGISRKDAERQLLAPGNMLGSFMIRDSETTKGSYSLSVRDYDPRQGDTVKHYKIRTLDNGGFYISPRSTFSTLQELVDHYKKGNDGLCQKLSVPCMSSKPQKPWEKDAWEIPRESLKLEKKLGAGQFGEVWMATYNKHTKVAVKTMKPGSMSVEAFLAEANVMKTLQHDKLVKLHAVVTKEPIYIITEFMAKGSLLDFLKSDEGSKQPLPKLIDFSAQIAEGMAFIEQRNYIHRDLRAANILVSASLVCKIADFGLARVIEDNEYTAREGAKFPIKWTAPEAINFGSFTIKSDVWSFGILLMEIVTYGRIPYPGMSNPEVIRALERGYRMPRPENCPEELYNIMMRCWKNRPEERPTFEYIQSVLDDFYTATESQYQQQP
FGFR3, sequence (P22607 whole entry, looked up): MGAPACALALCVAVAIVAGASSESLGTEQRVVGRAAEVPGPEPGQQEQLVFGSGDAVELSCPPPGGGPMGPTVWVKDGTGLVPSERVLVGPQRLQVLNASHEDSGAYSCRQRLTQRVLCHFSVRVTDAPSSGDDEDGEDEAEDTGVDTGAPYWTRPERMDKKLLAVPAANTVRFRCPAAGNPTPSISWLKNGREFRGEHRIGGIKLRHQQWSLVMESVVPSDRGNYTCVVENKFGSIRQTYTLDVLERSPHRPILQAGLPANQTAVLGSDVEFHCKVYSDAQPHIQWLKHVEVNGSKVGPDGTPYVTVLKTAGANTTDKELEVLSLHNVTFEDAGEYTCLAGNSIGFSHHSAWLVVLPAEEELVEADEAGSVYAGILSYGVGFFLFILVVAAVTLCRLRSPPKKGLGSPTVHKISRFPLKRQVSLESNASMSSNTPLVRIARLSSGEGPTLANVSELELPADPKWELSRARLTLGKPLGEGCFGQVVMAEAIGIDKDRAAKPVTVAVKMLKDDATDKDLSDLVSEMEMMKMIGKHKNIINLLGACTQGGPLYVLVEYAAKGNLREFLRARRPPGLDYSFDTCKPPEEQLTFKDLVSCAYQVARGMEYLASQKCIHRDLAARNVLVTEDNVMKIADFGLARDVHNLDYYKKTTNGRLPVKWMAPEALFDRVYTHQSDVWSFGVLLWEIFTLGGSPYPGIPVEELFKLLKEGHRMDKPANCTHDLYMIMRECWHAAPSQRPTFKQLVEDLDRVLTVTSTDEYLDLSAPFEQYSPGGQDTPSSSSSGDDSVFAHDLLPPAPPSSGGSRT
FGFR1, sequence (P11362 whole entry, looked up): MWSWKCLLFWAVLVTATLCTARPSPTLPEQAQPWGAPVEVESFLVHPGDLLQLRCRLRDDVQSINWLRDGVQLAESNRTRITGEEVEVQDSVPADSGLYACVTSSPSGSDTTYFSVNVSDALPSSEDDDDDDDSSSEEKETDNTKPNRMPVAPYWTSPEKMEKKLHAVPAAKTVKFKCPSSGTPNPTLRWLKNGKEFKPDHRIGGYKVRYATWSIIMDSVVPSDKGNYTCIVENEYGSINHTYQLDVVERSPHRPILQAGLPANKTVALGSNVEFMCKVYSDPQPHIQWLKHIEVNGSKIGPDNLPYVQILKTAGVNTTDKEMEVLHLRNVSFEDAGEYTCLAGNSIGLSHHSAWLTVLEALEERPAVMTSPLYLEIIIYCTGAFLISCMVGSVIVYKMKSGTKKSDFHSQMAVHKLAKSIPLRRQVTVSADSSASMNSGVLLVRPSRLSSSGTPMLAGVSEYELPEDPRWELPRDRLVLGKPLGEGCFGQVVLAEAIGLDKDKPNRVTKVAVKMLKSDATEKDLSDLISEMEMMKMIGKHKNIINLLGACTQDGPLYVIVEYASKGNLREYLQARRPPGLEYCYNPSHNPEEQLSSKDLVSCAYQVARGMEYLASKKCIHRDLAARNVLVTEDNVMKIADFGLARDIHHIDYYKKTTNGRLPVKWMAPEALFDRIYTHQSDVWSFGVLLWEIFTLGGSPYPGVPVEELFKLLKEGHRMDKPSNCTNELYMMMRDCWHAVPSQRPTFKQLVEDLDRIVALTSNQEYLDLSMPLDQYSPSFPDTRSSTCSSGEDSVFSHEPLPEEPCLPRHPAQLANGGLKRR
EPHB1, sequence (P54762 whole entry, looked up): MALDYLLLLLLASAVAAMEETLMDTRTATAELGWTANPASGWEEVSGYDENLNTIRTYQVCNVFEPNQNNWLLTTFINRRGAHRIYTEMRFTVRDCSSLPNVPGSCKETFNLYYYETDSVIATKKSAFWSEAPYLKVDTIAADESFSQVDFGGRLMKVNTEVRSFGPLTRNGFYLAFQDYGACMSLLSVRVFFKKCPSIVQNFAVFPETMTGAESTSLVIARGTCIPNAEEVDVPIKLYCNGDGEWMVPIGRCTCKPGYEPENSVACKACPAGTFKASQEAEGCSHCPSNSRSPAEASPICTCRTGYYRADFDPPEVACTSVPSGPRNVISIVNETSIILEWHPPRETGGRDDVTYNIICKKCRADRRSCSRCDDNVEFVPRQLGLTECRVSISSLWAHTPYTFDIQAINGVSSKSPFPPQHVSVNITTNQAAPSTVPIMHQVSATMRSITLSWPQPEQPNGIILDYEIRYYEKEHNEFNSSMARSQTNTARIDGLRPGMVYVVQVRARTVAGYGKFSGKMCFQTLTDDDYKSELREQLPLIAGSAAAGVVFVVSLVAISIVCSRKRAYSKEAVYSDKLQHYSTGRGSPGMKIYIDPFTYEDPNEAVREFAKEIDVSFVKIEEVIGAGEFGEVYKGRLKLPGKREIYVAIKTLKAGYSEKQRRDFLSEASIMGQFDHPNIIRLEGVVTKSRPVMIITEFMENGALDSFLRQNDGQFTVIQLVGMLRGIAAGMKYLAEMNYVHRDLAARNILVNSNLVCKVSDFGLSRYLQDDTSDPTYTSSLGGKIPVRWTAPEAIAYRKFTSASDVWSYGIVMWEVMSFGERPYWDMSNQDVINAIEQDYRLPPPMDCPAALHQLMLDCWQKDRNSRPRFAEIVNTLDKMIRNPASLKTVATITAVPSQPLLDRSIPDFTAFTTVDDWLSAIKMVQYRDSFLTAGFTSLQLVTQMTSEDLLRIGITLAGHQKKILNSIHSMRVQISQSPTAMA

Sequence	phosphorylation enrichment (AncSZ)	phosphorylation enrichment (EPHB1)	phosphorylation enrichment (EPHB2)	phosphorylation enrichment (FGFR1)	phosphorylation enrichment (FGFR3)	phosphorylation enrichment (Fer (mouse))	phosphorylation enrichment (Fes)	phosphorylation enrichment (Fyn)	phosphorylation enrichment (Hck)	phosphorylation enrichment (Jak2)	phosphorylation enrichment (MERTK)	phosphorylation enrichment (c-Abl (mouse))	phosphorylation enrichment (c-Src)	SH2 binding enrichment (Grb2 SH2)	SH2 binding enrichment (SHP2-C SH2)	SH2 binding enrichment (c-Src SH2)
SSAAGYACLAF [MVD_Y131_YF]	0.948	0.536	0.455	0.446	0.763	0.493	1.07	0.428	0.585	0.919	0.538	0.946	0.494	0.732	10	1.55
SSEFHCVGGFF [CTSC_Y347_Y347C_YF]	0.997	0.564	0.5	0.466	0.619	0.521	1.05	0.44	0.499	0.858	0.412	0.735	0.458	0.883	0.64	0.373
SSENPCATIKD [MEGF10_Y1030_Y1030C]	0.812	0.43	0.494	0.554	0.602	0.445	0.823	0.468	0.492	0.66	0.438	0.509	0.465	0.795	0.806	0.541
SSFDTYHLSRE [KIR3DL2_Y253_I252T_YF]	0.756	0.528	0.616	0.615	0.595	0.539	0.842	4.75	3.51	0.7	0.613	0.613	3.31	0.764	0.824	0.701
SSQILYKLEQS [THADA_Y701_V699I]	0.727	0.56	0.451	0.4	0.582	0.423	0.781	0.388	0.49	0.7	0.466	0.551	0.669	1	0.533	0.537
SSRKEYFIGGG [GYPC_Y126]	0.482	0.423	0.317	0.532	0.478	0.431	0.673	0.603	0.486	0.519	0.309	0.429	0.496	0.703	0.677	0.63
SSVPDYLAAVD [GLB1_Y154_D151V]	1.63	0.631	0.683	0.534	1.17	0.568	1.19	0.582	0.517	1.11	0.463	0.801	0.381	0.774	0.816	0.523
SVAVPYEPPEV [TP53_Y220_V217A]	1.31	0.614	0.626	0.595	0.944	0.529	1.31	0.486	0.565	1.1	0.493	0.823	0.551	1.05	0.719	0.728
SVETPYVSVTF [NDRG2_Y47_G48V]	1.26	0.632	0.629	0.897	0.936	1.56	1.19	0.784	0.662	1.1	0.47	0.844	2.05	0.632	0.827	0.485
SVGGCYEQLFV [MC4R_Y41_D37V]	1.51	1.02	0.661	0.791	0.972	7.02	1.42	0.982	1.46	1.14	0.826	1.22	1.24	0.862	0.633	0.76
SVMVPYEPPEV [TP53_Y220_V217M]	1.04	0.515	0.54	0.52	0.662	0.56	1.15	0.481	0.496	1.09	0.433	0.804	0.465	0.786	0.626	0.608
SVTCTGSPALN [TP53_Y126_Y126G]	0.792	0.539	0.487	0.422	0.511	0.423	0.972	0.422	0.459	0.741	0.385	0.612	0.387	0.796	0.625	0.388
SVTCTYCPALN [TP53_Y126_S127C]	0.84	0.38	0.413	0.564	0.46	0.394	0.779	0.545	0.495	0.629	0.611	0.683	0.581	1.24	1.35	1.19
SVVVLYEPPEV [TP53_Y220_P219L]	1.72	4.88	11	0.588	0.738	5.4	1.15	0.59	1.42	1.06	3.56	1.19	0.701	0.962	0.612	0.611
SVVVPCEPPEV [TP53_Y220_Y220C]	0.998	0.534	0.671	0.517	0.678	0.525	1.18	0.438	0.517	1.04	0.459	0.834	0.481	1.02	0.886	0.571
SVVVPYEPAEV [TP53_Y220_P223A]	1.09	0.704	0.689	0.566	0.719	0.596	1.18	0.433	0.498	1.1	0.488	0.708	0.539	0.81	0.787	1.11
SVVVPYEPLEV [TP53_Y220_P223L]	1.19	0.562	0.602	0.531	0.836	0.934	1.23	0.587	0.533	0.947	0.489	0.697	0.46	0.849	0.598	2.45

Sequence	phosphorylation enrichment (AncSZ)	phosphorylation enrichment (EPHB1)	phosphorylation enrichment (EPHB2)	phosphorylation enrichment (FGFR1)	phosphorylation enrichment (FGFR3)	phosphorylation enrichment (Fer (mouse))	phosphorylation enrichment (Fes)	phosphorylation enrichment (Fyn)	phosphorylation enrichment (Hck)	phosphorylation enrichment (Jak2)	phosphorylation enrichment (MERTK)	phosphorylation enrichment (c-Abl (mouse))	phosphorylation enrichment (c-Src)	SH2 binding enrichment (Grb2 SH2)	SH2 binding enrichment (SHP2-C SH2)	SH2 binding enrichment (c-Src SH2)
SWDKRYCEAGC [ITGA2B_Y197_F202C]	0.859	0.446	0.41	0.507	0.541	0.383	0.887	0.454	0.417	0.641	0.401	0.984	0.357	0.957	1.23	0.651
TDGIAYEFRVI	1.46	0.659	0.603	0.507	0.852	0.843	1.34	0.514	0.655	1.32	0.495	0.854	0.527	0.753	0.642	0.47
TDTAAYEERLR [SPTB_Y474_V478L]	0.936	0.49	0.648	0.668	0.71	0.458	0.914	0.67	0.516	0.742	0.482	0.48	0.478	0.849	0.924	0.504
TEAEPYYCSLR [NPHS1_Y1138_R1140C]	1.81	1.5	1.43	1.49	1.47	1.8	1.5	4.22	4.2	1.4	2.78	1.18	3.96	0.893	0.73	1.22
TEQDPYNSIVR [MMUT_Y364_N366S]	1.03	0.496	0.616	0.697	0.665	0.488	1.01	0.494	0.551	0.889	0.4	0.661	0.593	0.952	0.711	1.48
TESALYGCTVL [KIAA1804_Y724]	1.13	0.686	0.885	0.559	1.15	4.71	1.27	5.57	4.05	1.12	1.46	1.04	4.74	0.82	0.916	0.552
TESNNYIYKTL [FAM83B_Y637]	0.729	0.483	0.44	0.625	0.64	0.512	0.696	1.31	0.99	0.63	0.535	0.559	1.28	0.738	1.65	0.523
TESNNYIYTTL [FAM83B_Y637_K640T]	1.03	2.3	1.15	2.74	1.92	2.64	0.898	8.53	7.3	0.774	5.09	0.692	7.09	0.752	0.8	0.579
TFEFRYLEDRD [CNOT3_Y746_YF]	1.35	0.676	0.756	0.599	0.826	0.606	1.37	0.686	0.67	1.17	0.398	0.762	0.591	1.08	0.96	0.584
TFLRTYTDTMQ [TSPAN7_Y124_A127T]	0.68	0.527	0.491	0.486	0.497	0.501	0.76	0.464	0.403	0.687	0.391	0.69	0.425	0.995	0.454	0.591
TGDFGYRAPGY [TNS2_Y668]	0.545	0.387	0.413	0.415	0.435	0.332	0.546	0.477	0.376	0.557	0.31	0.533	0.441	0.747	0.619	0.425
TGVWDYIHVVD [GALE_Y241_R239W]	1.43	0.756	0.588	0.684	0.916	0.493	1.43	0.47	0.566	1.39	0.433	0.966	0.471	0.746	0.552	0.383
TGYRPYVCPFD [YY1_Y383_D380Y]	1.16	0.753	0.706	0.621	0.951	0.574	1.33	0.583	0.525	1.04	0.551	0.808	0.412	0.797	0.552	0.611
TKEPKYEGAGS [KIAA1210_Y1615]	0.614	0.368	0.337	0.403	0.385	0.378	0.542	0.339	0.372	0.5	0.326	0.496	0.315	0.863	0.719	0.597
TKVVHYRKWIK [KLK2_Y249]	0.632	0.483	0.318	0.375	0.432	0.373	0.614	0.382	0.443	0.415	0.379	0.462	0.595	1.12	0.912	0.558
TLLERYGMTEI [ACSF3_Y355]	0.621	0.415	0.516	0.404	0.564	0.42	0.863	0.387	0.392	0.565	0.342	0.516	0.418	0.907	0.866	0.462

Reference: the supplement of paper PMC10065799, “High-throughput profiling of sequence recognition by tyrosine kinases and SH2 domains using bacterial peptide display” (eLife, 2023)
